Data on 14 variants can be found in IntAct's records for PubMed 31515488.

B1: Isoform 1 of Ras association domain-containing protein 2 (Homo sapiens), P50749-1 (parent)
chain: MDYSHQTSLVPCGQDKYISKNELLLHLKTYNLYYEGQNLQLRHREEEDEFIVEGLLNISWGLRRPIRLQMQDDNERIRPPPSSSSWHSGCNLGAQGTTLKPLTVPKVQISEVDAPPEGDQMPSSTDSRGLKPLQEDTPQLMRTRSDVGVRRRGNVRTPSDQRRIRRHRFSINGHFYNHKTSVFTPAYGSVTNVRINSTMTTPQVLKLLLNKFKIENSAEEFALYVVHTSGEKQKLKATDYPLIARILQGPCEQISKVFLMEKDQVEEVTYDVAQYIKFEMPVLKSFIQKLQEEEDREVKKLMRKYTVLRLMIRQRLEEIAETPATI
partner: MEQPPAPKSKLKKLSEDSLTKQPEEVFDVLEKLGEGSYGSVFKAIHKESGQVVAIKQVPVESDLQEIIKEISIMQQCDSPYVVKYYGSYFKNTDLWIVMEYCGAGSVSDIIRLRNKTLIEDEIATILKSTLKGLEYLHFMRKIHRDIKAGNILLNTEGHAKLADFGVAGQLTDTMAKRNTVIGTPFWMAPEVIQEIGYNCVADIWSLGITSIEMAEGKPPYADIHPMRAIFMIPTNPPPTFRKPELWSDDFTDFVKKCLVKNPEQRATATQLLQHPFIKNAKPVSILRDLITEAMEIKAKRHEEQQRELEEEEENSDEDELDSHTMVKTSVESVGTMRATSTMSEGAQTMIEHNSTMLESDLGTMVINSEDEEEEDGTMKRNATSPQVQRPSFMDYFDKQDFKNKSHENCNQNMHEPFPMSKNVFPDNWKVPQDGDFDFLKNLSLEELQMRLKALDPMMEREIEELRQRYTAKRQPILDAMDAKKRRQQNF
B2: Cyclic AMP-responsive element-binding protein 3-like protein 1 (Homo sapiens), Q96BA8 (parent)
chain: MDAVLEPFPADRLFPGSSFLDLGDLNESDFLNNAHFPEHLDHFTENMEDFSNDLFSSFFDDPVLDEKSPLLDMELDSPTPGIQAEHSYSLSGDSAPQSPLVPIKMEDTTQDAEHGAWALGHKLCSIMVKQEQSPELPVDPLAAPSAMAAAAAMATTPLLGLSPLSRLPIPHQAPGEMTQLPVIKAEPLEVNQFLKVTPEDLVQMPPTPPSSHGSDSDGSQSPRSLPPSSPVRPMARSSTAISTSPLLTAPHKLQGTSGPLLLTEEEKRTLIAEGYPIPTKLPLTKAEEKALKRVRRKIKNKISAQESRRKKKEYVECLEKKVETFTSENNELWKKVETLENANRTLLQQLQKLQTLVTNKISRPYKMAATQTGTCLMVAALCFVLVLGSLVPCLPEFSSGSQTVKEDPLAADGVYTASQMPSRSLLFYDDGAGLWEDGRSTLLPMEPPDGWEINPGGPAEQRPRDHLQHDHLDSTHETTKYLSEAWPKDGGNGTSPDFSHSKEWFHDRDLGPNTTIKLS
B3: Keratin-associated protein 26-1 (Homo sapiens), Q6PEX3 (parent)
chain: MSCPNYCSGNSNSGSLRTSRHIPLTSIDLCPTSVSCGDVLYLPTSSQDHTWVTDNCQETCGEPTSCQPVHCETGNLETSCGSSTAYYVPRPCQGSSFLPASFFSSSCLPVSCRPQRYVSSGCRPLRPLLNSYQPIGDCVPNAYRPQFCLSKSCQPQNLLTSGCQPSSCLAYRPQSLHVVSSSLRPLGPLFSGCQPLTHVFSTCRPSCSGL
B4: Nuclear autoantigen Sp-100 (Homo sapiens), P23497 (parent)
chain: MAGGGGDLSTRRLNECISPVANEMNHLPAHSHDLQRMFTEDQGVDDRLLYDIVFKHFKRNKVEISNAIKKTFPFLEGLRDRDLITNKMFEDSQDSCRNLVPVQRVVYNVLSELEKTFNLPVLEALFSDVNMQEYPDLIHIYKGFENVIHDKLPLQESEEEEREERSGLQLSLEQGTGENSFRSLTWPPSGSPSHAGTTPPENGLSEHPCETEQINAKRKDTTSDKDDSLGSQQTNEQCAQKAEPTESCEQIAVQVNNGDAGREMPCPLPCDEESPEAELHNHGIQINSCSVRLVDIKKEKPFSNSKVECQAQARTHHNQASDIIVISSEDSEGSTDVDEPLEVFISAPRSEPVINNDNPLESNDEKEGQEATCSRPQIVPEPMDFRKLSTFRESFKKRVIGQDHDFSESSEEEAPAEASSGALRSKHGEKAPMTSRSTSTWRIPSRKRRFSSSDFSDLSNGEELQETCSSSLRRGSGSQPQEPENKKCSCVMCFPKGVPRSQEARTESSQASDMMDTMDVENNSTLEKHSGKRRKKRRHRSKVNGLQRGRKKDRPRKHLTLNNKVQKKRWQQRGRKANTRPLKRRRKRGPRIPKDENINFKQSELPVTCGEVKGTLYKERFKQGTSKKCIQSEDKKWFTPREFEIEGDRGASKNWKLSIRCGGYTLKVLMENKFLPEPPSTRKKRILESHNNTLVDPCEEHKKKNPDASVKFSEFLKKCSETWKTIFAKEKGKFEDMAKADKAHYEREMKTYIPPKGEKKKKFKDPNAPKRPPLAFFLFCSEYRPKIKGEHPGLSIDDVVKKLAGMWNNTAAADKQFYEKKAAKLKEKYKKDIAAYRAKGKPNSAKKRVVKAEKSKKKKEEEEDEEDEQEEENEEDDDK
partner: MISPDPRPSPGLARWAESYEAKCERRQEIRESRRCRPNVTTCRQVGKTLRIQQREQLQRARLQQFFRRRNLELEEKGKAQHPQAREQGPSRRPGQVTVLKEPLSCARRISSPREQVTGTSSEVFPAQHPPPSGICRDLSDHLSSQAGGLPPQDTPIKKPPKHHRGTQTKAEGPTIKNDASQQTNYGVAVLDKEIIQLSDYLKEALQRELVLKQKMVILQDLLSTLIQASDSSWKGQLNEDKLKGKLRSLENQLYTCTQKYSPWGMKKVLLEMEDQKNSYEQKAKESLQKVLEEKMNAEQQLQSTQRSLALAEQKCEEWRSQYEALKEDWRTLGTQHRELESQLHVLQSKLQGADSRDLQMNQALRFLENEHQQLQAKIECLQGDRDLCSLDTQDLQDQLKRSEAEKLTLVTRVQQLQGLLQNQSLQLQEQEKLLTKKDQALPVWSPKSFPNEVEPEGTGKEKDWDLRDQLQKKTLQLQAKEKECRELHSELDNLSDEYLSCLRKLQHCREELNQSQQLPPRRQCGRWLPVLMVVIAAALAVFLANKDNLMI
B5: Synaptonemal complex central element protein 3 (Homo sapiens), A1L190 (parent)
chain: MDDADPEERNYDNMLKMLSDLNKDLEKLLEEMEKISVQATWMAYDMVVMRTNPTLAESMRRLEDAFVNCKEEMEKNWQELLHETKQRL
partner: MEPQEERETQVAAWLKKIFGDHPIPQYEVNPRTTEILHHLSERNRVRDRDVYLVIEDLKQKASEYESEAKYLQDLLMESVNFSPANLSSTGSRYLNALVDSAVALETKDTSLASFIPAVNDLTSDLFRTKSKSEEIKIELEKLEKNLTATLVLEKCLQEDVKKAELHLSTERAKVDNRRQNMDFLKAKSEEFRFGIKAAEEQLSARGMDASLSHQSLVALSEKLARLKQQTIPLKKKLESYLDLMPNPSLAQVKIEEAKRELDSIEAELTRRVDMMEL
B6: E3 ubiquitin-protein ligase ARIH2 (Homo sapiens), O95376 (parent)
chain: MSVDMNSQGSDSNEEDYDPNCEEEEEEEEDDPGDIEDYYVGVASDVEQQGADAFDPEEYQFTCLTYKESEGALNEHMTSLASVLKVSHSVAKLILVNFHWQVSEILDRYKSNSAQLLVEARVQPNPSKHVPTSHPPHHCAVCMQFVRKENLLSLACQHQFCRSCWEQHCSVLVKDGVGVGVSCMAQDCPLRTPEDFVFPLLPNEELREKYRRYLFRDYVESHYQLQLCPGADCPMVIRVQEPRARRVQCNRCNEVFCFKCRQMYHAPTDCATIRKWLTKCADDSETANYISAHTKDCPKCNICIEKNGGCNHMQCSKCKHDFCWMCLGDWKTHGSEYYECSRYKENPDIVNQSQQAQAREALKKYLFYFERWENHNKSLQLEAQTYQRIHEKIQERVMNNLGTWIDWQYLQNAAKLLAKCRYTLQYTYPYAYYMESGPRKKLFEYQQAQLEAEIENLSWKVERADSYDRGDLENQMHIAEQRRRTLLKDFHDT
B7: Germ cell-less protein-like 1 (Homo sapiens), Q96IK5 (parent)
chain: MGSLSSRVLRQPRPALAQQAQGARAGGSARRPDTGDDAAGHGFCYCAGSHKRKRSSGSFCYCHPDSETDEDEEEGDEQQRLLNTPRRKKLKSTSKYIYQTLFLNGENSDIKICALGEEWSLHKIYLCQSGYFSSMFSGSWKESSMNIIELEIPDQNIDVEALQVAFGSLYRDDVLIKPSRVVAILAAACLLQLDGLIQQCGETMKETVNVKTVCGYYTSAGTYGLDSVKKKCLEWLLNNLMTHQNVELFKELSINVMKQLIGSSNLFVMQVEMDIYTALKKWMFLQLVPSWNGSLKQLLTETDVWFSKQRKDFEGMAFLETEQGKPFVSVFRHLRLQYIISDLASARIIEQDAVVPSEWLSSVYKQQWFAMLRAEQDSEVGPQEINKEELEGNSMRCGRKLAKDGEYCWRWTGFNFGFDLLVTYTNRYIIFKRNTLNQPCSGSVSLQPRRSIAFRLRLASFDSSGKLICSRTTGYQILTLEKDQEQVVMNLDSRLLIFPLYICCNFLYISPEKKN

The variants in one test derive from B1. Particulars: with stk3_human STK3, Q13188.
In the case of R144H, the “effect of a mutation on the interaction” value is listed as “with no effect”.

Variants of B2 are the subject of the next test. Conditions: with gpr25_human GPR25, O00155.
gpr25_human GPR25, O00155, sequence (O00155 whole entry): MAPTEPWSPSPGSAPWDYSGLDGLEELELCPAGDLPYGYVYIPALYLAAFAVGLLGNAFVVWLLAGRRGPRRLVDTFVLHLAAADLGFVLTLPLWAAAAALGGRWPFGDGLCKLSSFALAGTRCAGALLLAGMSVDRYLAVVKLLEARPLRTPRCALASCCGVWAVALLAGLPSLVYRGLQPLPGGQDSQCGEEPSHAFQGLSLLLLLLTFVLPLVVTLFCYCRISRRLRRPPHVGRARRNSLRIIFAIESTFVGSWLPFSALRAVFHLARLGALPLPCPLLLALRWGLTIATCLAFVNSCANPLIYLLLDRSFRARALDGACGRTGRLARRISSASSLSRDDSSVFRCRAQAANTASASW
As to I516S, the “effect of a mutation on the interaction” value is recorded as “with no effect”.
As for A152T, the “effect of a mutation on the interaction” value is given as “with no effect”.

Variants of B2 are the subject of the next test. Conditions: with tm147_human TMEM147, Q9BVK8.
tm147_human TMEM147, Q9BVK8, sequence (Q9BVK8 whole entry): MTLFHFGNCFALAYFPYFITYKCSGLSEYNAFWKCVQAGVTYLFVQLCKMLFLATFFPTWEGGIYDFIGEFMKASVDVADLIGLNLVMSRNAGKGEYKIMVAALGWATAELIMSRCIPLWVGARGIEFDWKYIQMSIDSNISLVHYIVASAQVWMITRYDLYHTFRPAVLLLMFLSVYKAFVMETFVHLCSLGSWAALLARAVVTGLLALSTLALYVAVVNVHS
For the variant I516S, the “effect of a mutation on the interaction” value is listed as “with no effect”.
For A152T, the “effect of a mutation on the interaction” value is given as “with no effect”.

The variants in another test derive from B3. Particulars: with grn_human GRN.
As for S26Y, the “effect of a mutation on the interaction” value is “disrupting interaction strength”.

Another test covers variants of B3. Particulars: with ccnjl_human CCNJL.
In the case of S26Y, the “effect of a mutation on the interaction” value is listed as “with no effect”.

The next test covers variants of B4. Conditions: with TRAF3IP3, Q9Y228.
On to M433V, for which the “effect of a mutation on the interaction” value is reported as “with no effect”.

In the next test the parent is B5. Particulars: with haus1_human HAUS1, Q96CS2.
Regarding R50C, the “effect of a mutation on the interaction” value was “with no effect”.
On to A65G, for which the “effect of a mutation on the interaction” value is “with no effect”.

In another test the parent is B6. Conditions: with ub2l6_human UBE2L6, O14933.
ub2l6_human UBE2L6, O14933, sequence (O14933 whole entry): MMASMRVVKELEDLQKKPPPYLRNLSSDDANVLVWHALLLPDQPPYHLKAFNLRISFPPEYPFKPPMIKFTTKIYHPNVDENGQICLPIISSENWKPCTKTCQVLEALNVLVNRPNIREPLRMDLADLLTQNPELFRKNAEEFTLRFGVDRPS
Take E29D: the “effect of a mutation on the interaction” value was “with no effect”.

Variants of B6 are the subject of another test. Conditions: with bub1_human BUB1, O43683.
bub1_human BUB1, O43683, sequence (O43683 whole entry, looked up): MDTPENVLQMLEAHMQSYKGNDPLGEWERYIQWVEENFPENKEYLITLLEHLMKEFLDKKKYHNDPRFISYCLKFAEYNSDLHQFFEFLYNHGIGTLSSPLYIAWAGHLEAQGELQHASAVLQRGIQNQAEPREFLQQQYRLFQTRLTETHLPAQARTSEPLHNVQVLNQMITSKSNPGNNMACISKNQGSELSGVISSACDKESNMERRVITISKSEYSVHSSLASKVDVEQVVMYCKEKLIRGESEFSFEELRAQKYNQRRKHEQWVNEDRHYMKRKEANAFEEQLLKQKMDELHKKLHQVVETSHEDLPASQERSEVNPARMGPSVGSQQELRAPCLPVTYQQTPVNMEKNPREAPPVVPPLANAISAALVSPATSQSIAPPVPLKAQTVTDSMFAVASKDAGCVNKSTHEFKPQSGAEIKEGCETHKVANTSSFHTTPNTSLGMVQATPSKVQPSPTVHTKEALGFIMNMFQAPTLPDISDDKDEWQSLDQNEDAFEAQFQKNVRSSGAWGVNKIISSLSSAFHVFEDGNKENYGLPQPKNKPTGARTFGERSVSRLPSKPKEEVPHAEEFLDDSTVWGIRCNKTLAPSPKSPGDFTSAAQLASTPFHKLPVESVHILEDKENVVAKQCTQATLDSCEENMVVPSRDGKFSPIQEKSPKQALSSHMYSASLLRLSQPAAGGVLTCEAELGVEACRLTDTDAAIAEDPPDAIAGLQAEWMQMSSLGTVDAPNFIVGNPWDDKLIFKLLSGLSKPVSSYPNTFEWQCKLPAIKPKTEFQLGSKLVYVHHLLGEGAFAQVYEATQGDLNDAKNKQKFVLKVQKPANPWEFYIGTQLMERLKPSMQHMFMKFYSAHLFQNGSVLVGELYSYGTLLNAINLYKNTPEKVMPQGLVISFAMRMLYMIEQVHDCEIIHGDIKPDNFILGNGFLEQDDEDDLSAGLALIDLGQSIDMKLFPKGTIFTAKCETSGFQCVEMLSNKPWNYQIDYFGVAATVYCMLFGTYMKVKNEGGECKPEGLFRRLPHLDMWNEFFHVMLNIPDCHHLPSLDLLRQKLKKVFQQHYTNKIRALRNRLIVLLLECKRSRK
Turning to E29D, the “effect of a mutation on the interaction” value is reported as “with no effect”.

Another test covers variants of B7. Conditions: with cul3_human CUL3, Q13618.
As for I147V, the “effect of a mutation on the interaction” value was “with no effect”.
With E77K, the “effect of a mutation on the interaction” value is reported as “with no effect”.
R449Q: the “effect of a mutation on the interaction” value is on record as “with no effect”.
Turning to I340V, the “effect of a mutation on the interaction” value is “with no effect”.
As for R457H, the “effect of a mutation on the interaction” value is recorded as “with no effect”.
Turning to K281Q, the “effect of a mutation on the interaction” value is recorded as “with no effect”.

The variants in a further test derive from B7. Particulars: with FAM167A.
Take I147V: the “effect of a mutation on the interaction” value was “with no effect”.
As for E77K, the “effect of a mutation on the interaction” value was “with no effect”.
Turning to R449Q, the “effect of a mutation on the interaction” value is “with no effect”.
Turning to I340V, the “effect of a mutation on the interaction” value is recorded as “with no effect”.
R457H: the “effect of a mutation on the interaction” value was “disrupting interaction strength”.
As to K281Q, the “effect of a mutation on the interaction” value is “disrupting interaction strength”.
